Measured values reported in patent US20050154187A1.

What was measured:
[1] = biological target: soluble VEGF receptor KDR (sKDR) (UniProt P35968); assay: ELISA, plate-coated sKDR, detection with DHFR-specific mAb
[2] = biological target: soluble VEGF receptor Flt-1 (sFlt-1) (UniProt P17948); assay: ELISA, plate-coated sFlt-1, detection with DHFR-specific mAb

dihydrofolate reductase (DHFR), negative control protein, sequence (P00375 1-186 limits assumed): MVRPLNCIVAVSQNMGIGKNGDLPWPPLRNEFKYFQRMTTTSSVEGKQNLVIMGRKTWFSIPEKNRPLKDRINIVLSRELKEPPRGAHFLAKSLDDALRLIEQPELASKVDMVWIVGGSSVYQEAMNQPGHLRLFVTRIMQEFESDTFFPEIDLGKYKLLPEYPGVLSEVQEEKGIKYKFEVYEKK

Work on “dihydrofolate reductase (DHFR), negative control protein (from UniProt P00375 1-186) (enzyme)” yielded an OD492 nm [1] of 0.074 OD492 nm and an OD492 nm [2] of 0.088 OD492 nm.
